{"source": "patent US20020192796A1", "biological_target": "HP1032 protein, sigma28 factor of RNA polymerase (FliA) of Helicobacter pylori (Helicobacter pylori strain 26695)", "assay": "cell-based or functional assay", "data": [{"substance": "HP1122 protein, anti-sigma28 factor (FlgM) of Helicobacter pylori", "values": [{"measurement": "flaA mRNA, RNA slot blot hybridization, HP1122-inactivated strain against wild type", "value": 2.5, "unit": "fold"}, {"measurement": "fold decrease in flaA mRNA, RNA slot blot hybridization, HP1122-overexpressing N6 strain against wild type", "value": 2, "unit": "fold"}]}]}
